Patent US20120141382, “APTAMER MODULATORS OF COMPLEMENT PROTEIN C3 AND BIOLOGICALLY ACTIVE PROTEOLYTIC PRODUCTS THEREOF” (Research Foundation of State University of New York at …, published 2012)

Experiments:
[1] = target: T1, Complement C3b (Homo sapiens, UniProt P01024;P01024 P01024:23-667,P01024:749-1663); assay: filter; 20 mM Tris-HCl pH 7.6, 150 mM NaCl, 10 mM MgCl2; minimized version may have been used; conditions: tags: Quidel; label: 32P-CTP uniform
Description: (§1) Initially, RNA was heated to 65° C. for 10 minutes then switched to 37° C. for an additional 10 minutes before the addition of protein. The reactions were allowed to equilibrate for 15-20 minutes at ambient temperature before being subjected to Electrophoretic Mobility Shift Assay (“EMSA”) or filter binding.
(§2) For filter binding, the above-mentioned reaction mixture was immobilized on nitrocellulose (Millipore) using a manifold (Millipore) or a Bio-Dot SF (slot format) Microfiltration System (Bio-Rad, Hercules, Calif.). The nitrocellulose membrane was first soaked in binding buffer containing 20 mM Tris-Cl (pH 7.6), 150 mM NaCl, 10 mM MgCl₂. Nitrocellulose and two pieces of 3M Whatmann filter paper (3M) were assembled in the manifold as per company recommendations. Each well was washed with 1 ml of binding buffer. Samples were loaded in the wells and vacuum was applied to bind the complex, then each well was washed with 2 ml of binding buffer. The nitrocellulose membrane was then air dried and exposed to a phosphor screen (GE Healthcare) for 1 hour. The image was scanned using a Typhoon imager and ImageQuant software and the data was analyzed.

[2] = target: T2, Complement iC3b (Homo sapiens, UniProt P01024;P01024;P01024 P01024:23-667,P01024:749-1303,P01024:1321-1663); assay: as above; conditions: tags: Calbiochem; label: 32P-CTP uniform
T2 sequence (P01024 23-667, chain 1 of 3): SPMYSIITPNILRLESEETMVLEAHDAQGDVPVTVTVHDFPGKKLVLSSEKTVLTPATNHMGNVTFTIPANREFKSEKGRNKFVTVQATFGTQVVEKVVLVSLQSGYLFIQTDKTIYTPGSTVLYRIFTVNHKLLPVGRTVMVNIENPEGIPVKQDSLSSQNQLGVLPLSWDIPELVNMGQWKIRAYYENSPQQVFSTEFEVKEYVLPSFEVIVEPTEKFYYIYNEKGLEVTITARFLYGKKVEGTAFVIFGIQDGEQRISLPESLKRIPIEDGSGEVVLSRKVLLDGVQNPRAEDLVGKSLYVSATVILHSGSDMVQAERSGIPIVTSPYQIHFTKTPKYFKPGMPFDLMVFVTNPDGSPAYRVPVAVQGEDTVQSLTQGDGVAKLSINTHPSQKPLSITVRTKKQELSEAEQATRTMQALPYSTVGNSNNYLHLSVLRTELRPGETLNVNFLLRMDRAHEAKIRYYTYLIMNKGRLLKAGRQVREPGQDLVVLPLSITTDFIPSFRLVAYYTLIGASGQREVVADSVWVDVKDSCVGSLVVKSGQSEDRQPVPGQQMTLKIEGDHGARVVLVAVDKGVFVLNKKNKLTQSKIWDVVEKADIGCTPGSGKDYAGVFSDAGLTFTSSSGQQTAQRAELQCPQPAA
T2 sequence (P01024 749-1303, chain 2 of 3): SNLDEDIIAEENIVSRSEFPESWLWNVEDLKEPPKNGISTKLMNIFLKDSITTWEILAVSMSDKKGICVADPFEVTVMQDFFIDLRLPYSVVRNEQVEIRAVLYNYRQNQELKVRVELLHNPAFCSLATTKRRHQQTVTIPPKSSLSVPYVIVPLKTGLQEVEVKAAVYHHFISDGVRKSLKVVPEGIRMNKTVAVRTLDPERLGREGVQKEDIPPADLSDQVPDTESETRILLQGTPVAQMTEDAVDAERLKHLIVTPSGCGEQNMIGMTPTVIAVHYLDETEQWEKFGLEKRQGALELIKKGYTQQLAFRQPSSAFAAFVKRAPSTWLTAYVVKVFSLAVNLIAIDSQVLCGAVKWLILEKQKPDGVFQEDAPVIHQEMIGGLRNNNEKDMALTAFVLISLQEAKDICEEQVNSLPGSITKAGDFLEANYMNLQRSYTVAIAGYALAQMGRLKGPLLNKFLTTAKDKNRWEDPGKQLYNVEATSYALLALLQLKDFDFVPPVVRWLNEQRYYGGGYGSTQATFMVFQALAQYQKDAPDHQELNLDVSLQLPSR
T2 sequence (P01024 1321-1663, chain 3 of 3): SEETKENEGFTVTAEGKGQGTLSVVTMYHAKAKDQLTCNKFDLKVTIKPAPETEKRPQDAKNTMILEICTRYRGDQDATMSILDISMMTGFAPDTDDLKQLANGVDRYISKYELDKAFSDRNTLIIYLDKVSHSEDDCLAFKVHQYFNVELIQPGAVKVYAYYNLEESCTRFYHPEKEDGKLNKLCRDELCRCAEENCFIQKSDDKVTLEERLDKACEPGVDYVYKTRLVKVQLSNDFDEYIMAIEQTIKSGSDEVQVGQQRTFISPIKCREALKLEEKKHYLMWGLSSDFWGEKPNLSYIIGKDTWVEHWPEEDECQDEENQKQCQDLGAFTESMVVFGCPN
Description: as §1, §2

[3] = target: T3, Complement C3 (Homo sapiens, UniProt P01024;P01024 P01024:23-667,P01024:672-1663); assay: as above; conditions: tags: Calbiochem; label: 32P-CTP uniform
T3 sequence (P01024 23-667, chain 1 of 2): as the sequence (P01024 23-667, chain 1 of 3) above
T3 sequence (P01024 672-1663, chain 2 of 2): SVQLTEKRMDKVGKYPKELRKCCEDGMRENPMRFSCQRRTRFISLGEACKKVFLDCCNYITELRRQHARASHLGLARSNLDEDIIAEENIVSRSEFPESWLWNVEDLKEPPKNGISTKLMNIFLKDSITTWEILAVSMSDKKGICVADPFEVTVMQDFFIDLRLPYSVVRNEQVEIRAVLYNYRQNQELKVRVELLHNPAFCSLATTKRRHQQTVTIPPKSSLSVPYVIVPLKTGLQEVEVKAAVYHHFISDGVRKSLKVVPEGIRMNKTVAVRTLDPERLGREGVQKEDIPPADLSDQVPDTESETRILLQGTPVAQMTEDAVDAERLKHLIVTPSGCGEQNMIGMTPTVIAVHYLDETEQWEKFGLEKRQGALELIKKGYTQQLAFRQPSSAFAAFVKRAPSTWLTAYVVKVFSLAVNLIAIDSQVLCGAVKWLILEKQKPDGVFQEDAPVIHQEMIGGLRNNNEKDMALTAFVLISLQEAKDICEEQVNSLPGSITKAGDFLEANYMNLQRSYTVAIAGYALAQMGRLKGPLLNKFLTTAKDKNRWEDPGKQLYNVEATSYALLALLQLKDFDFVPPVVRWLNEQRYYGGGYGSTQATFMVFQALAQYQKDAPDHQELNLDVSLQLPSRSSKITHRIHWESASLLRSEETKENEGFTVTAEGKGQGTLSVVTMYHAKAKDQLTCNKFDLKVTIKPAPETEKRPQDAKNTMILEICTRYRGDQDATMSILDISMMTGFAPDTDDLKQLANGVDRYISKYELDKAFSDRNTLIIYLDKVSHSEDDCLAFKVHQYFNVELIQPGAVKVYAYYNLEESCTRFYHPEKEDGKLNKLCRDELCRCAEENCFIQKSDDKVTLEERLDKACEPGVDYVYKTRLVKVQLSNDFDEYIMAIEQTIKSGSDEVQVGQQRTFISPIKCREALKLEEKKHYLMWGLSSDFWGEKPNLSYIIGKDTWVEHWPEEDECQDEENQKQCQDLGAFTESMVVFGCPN
Description: as §1, §2

[4] = target: T2, Complement iC3b; assay: filter; no binding by filter assay and EMSA; conditions: tags: Calbiochem; label: 32P-CTP uniform
Description: as §1, §2

[5] = target: T1, Complement C3b; assay: filter; 20 mM Tris-HCl pH 7.6, 150 mM NaCl, 10 mM MgCl2; conditions: tags: Quidel; label: 32P-CTP uniform
Description: as §1, §2

[6] = target: T3, Complement C3; assay: filter; 20 mM Tris-HCl pH 7.6, 150 mM NaCl, 10 mM MgCl2; does not compete with AptC3-1; conditions: tags: Calbiochem; label: 32P-CTP uniform
Description: as §1, §2

[7] = target: T1, Complement C3b; assay: EMSA; retarded band; conditions: tags: Quidel; label: 32P-CTP uniform; hairpin with apical loop and internal loop
[8] = target: T2, Complement iC3b; assay: EMSA; retarded band; conditions: tags: Calbiochem; label: 32P-CTP uniform; hairpin with apical loop and internal loop
[9] = target: T3, Complement C3; assay: EMSA; retarded band; 2.5 mM MgCl2 gel, 4 C; conditions: tags: Calbiochem; label: 32P-CTP uniform; hairpin with apical loop and internal loop

T1 sequence (P01024 23-667, chain 1 of 2): as the sequence (P01024 23-667, chain 1 of 3) above
T1 sequence (P01024 749-1663, chain 2 of 2): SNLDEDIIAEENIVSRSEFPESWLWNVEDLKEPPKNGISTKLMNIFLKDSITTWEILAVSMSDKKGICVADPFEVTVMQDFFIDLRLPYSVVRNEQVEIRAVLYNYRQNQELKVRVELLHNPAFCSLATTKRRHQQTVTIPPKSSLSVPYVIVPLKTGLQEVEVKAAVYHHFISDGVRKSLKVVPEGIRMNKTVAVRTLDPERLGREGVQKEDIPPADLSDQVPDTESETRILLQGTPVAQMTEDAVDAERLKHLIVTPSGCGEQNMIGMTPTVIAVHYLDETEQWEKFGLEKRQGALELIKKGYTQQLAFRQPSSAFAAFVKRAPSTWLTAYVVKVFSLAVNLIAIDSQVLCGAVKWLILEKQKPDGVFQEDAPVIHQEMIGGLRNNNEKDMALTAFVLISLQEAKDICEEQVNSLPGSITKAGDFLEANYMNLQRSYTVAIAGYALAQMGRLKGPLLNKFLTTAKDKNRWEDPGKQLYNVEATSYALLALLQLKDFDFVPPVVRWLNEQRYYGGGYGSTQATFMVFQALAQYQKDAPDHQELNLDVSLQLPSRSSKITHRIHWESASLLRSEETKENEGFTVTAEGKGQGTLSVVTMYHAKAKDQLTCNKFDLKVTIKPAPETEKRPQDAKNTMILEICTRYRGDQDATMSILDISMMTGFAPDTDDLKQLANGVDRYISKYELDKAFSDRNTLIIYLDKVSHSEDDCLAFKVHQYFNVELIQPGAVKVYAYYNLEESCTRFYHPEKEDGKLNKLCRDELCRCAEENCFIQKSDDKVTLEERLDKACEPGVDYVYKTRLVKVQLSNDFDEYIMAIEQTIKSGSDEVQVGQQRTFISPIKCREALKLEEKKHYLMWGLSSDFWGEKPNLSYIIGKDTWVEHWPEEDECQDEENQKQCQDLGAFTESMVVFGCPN

B1: AptC3-1 (ssRNA)
RNA: GGGAGAAUUCAACUGCCAUCUAGGCUAGAAGAAUAUGACGGAUUGACCGUAUCAGGGUAGCCGAAGGGAGACAGAAGUACUACAAGCUUCUGGACUCGGU
Question: For B1, which Kd [1] is on record?
Answer: Its Kd is roughly 20 nM.

Question: What about the Kd [2] of the same binder?
Answer: The Kd was roughly 20 nM.

Question: And the Kd [3]?
Answer: The Kd was roughly 20 nM.

B2: AptC3-2 (ssRNA)
RNA: GGGAGAAUUCAACUGCCAUCUAGGCAAAUCCGCGAGCGCCGGUACCGGUGGCGCAUGCCCACACAGCACUAAACGAGUACUACAAGCUUCUGGACUCGGU
Question: Does B2 bind [4]?
Answer: Result: no binding

Question: And the Kd [5]?
Answer: Its Kd is 30 nM.

Question: What about the Kd [6] of the same binder?
Answer: Its Kd is 30 nM.

Question: Does GGGCUAGAAGAAUAUGACGGAUUGACCGUAUCAGGGUAGCCG (ssRNA) [MiniAptC3-1] bind [7]?
Answer: Result: binds

Question: Does GGGCUAGAAGAAUAUGACGGAUUGACCGUAUCAGGGUAGCCG (ssRNA) [MiniAptC3-1] bind [8]?
Answer: Result: binds

Question: Does GGGCUAGAAGAAUAUGACGGAUUGACCGUAUCAGGGUAGCCG (ssRNA) [MiniAptC3-1] bind [9]?
Answer: Result: binds
